This note sets out measurements from US20090312403A1.

B1: WT1 peptide P117-125 (…) (peptide)
peptide: PSQASSGQA
B2: WT1 peptide P118-126 (…) (peptide)
peptide: SQASSGQAR
B3: WT1 peptide P120-128 (…) (peptide)
peptide: ASSGQARMF
B4: WT1 peptide P124-132 (…) (peptide)
peptide: QARMFPNAP
B5: WT1 peptide P119-127 (…) (peptide)
peptide: QASSGQARM
B6: WT1 peptide P125-133 (…) (peptide)
peptide: ARMFPNAPY
B7: WT1 peptide P131-139 (…) (peptide)
peptide: APYLPSCLE
B8: WT1 peptide P128-136 (…) (peptide)
peptide: FPNAPYLPS
B9: WT1 peptide P130-138 (…) (peptide)
peptide: NAPYLPSCL
B10: WT1 peptide P127-135 (…) (peptide)
peptide: MFPNAPYLP
B11: WT1 peptide P129-137 (…) (peptide)
peptide: PNAPYLPSC
B12: WT1 peptide P121-129 (…) (peptide)
peptide: SSGQARMFP
B13: WT1 peptide p235-243 (…) (peptide)
peptide: CMTWNQMNL
B14: WT1 peptide p225-233 (…) (peptide)
peptide: NLYQMTSQL
B15: WT1 peptide p221-229 (…) (peptide)
peptide: YSSDNLYQM
B16: WT1 peptide p239-247 (…) (peptide)
peptide: NQMNLGATL
B17: WT1 peptide human p10-18 (…) (peptide)
peptide: ALLPAVPSL
B18: WT1 peptide p228-236 (…) (peptide)
peptide: QMTSQLECM
B19: WT1 peptide human p136-144 (…) (peptide)
peptide: SCLESQPAI
B20: WT1 peptide p329-337 (…) (peptide)
peptide: GCNKRYFKL

One assay addresses mouse B6 class I antigens (H-2^b: D^b or K^b) on RMA-S cells (mouse). Description: binding of 9mer peptide to mouse B6 (H-2^b) class I antigens, RMA-S cell assay.
Turning to B1, the Binding Affinity to Mouse MHC Class I is 2%.

In the case of B2, the Binding Affinity to Mouse MHC Class I came out at 2%.

For the molecule B3, the Binding Affinity to Mouse MHC Class I stood at 1%.

The molecule B4 yielded a Binding Affinity to Mouse MHC Class I of 1%.

In turn, B5 gave a Binding Affinity to Mouse MHC Class I of 2%.

Molecule B6 came in with a Binding Affinity to Mouse MHC Class I of 1%.

As for B7, the Binding Affinity to Mouse MHC Class I is 1%.

Turning to B8, the Binding Affinity to Mouse MHC Class I is 1%.

As for B9, the Binding Affinity to Mouse MHC Class I was 79%.

For the molecule B10, the Binding Affinity to Mouse MHC Class I amounted to 2%.

B11 gave a Binding Affinity to Mouse MHC Class I of 1%.

For the molecule B12, the Binding Affinity to Mouse MHC Class I is 1%.

For a further assay the target is unchanged. Description: RMA-S cells incubated with peptide (25 ug/ml), flow cytometry with FITC anti-D^b or anti-K^b.
For the molecule B13, the Binding Affinity to Mouse MHC Class I (% increase of D^b or K^b on RMA-S cells) turned out to be 33.6%.

On to B14, for which the Binding Affinity to Mouse MHC Class I (% increase of D^b or K^b on RMA-S cells) came out at 5.8%.

In the case of B15, the Binding Affinity to Mouse MHC Class I (% increase of D^b or K^b on RMA-S cells) was 0.8%.

The molecule B16 gave a Binding Affinity to Mouse MHC Class I (% increase of D^b or K^b on RMA-S cells) of 1%.

With B17, the Binding Affinity to Mouse MHC Class I (% increase of D^b or K^b on RMA-S cells) came to 2.2%.

The molecule B18 showed a Binding Affinity to Mouse MHC Class I (% increase of D^b or K^b on RMA-S cells) of 1.2%.

B19 displayed a Binding Affinity to Mouse MHC Class I (% increase of D^b or K^b on RMA-S cells) of 52%.

For the molecule B20, the Binding Affinity to Mouse MHC Class I (% increase of D^b or K^b on RMA-S cells) turned out to be 1.2%.
